Measured values as given in patent publication US20060286584A1 (University of Texas, published 2006).

Key:
[1] = system: T1, GST-Yki fusion protein (GST with full length Yki)
T1 sequence: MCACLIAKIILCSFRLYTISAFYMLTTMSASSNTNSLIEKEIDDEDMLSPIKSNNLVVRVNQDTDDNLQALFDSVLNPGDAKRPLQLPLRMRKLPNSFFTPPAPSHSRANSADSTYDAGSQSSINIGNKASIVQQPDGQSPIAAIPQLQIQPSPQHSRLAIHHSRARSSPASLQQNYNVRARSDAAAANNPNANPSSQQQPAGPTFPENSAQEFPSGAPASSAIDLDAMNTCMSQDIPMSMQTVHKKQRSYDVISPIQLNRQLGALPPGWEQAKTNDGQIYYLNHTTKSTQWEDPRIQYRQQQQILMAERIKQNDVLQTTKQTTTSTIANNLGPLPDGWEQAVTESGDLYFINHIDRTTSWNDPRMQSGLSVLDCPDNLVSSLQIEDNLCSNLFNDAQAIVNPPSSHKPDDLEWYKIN

[2] = target: T2, GST-Yki fusion protein (GST with full length Yki)
T2 chain: T1 sequence

[3] = target: GST-Tsc1 fusion (control substrate) [GST: P08515]
V5-tagged Wts (Warts) = target: T3, V5-tagged Wts (Warts) (Drosophila, UniProt Q9VA38 1-1; Q9VA38 2-1105); experiment: co-immunoprecipitation from S2 cells (anti-HA IP, anti-V5 blot)
T3 construct: Expressed in S2 cells; in the kinase assay it was immunoprecipitated with anti-V5, alone or after co-expression with Hpo-Sav; also called Lats
T3 sequence: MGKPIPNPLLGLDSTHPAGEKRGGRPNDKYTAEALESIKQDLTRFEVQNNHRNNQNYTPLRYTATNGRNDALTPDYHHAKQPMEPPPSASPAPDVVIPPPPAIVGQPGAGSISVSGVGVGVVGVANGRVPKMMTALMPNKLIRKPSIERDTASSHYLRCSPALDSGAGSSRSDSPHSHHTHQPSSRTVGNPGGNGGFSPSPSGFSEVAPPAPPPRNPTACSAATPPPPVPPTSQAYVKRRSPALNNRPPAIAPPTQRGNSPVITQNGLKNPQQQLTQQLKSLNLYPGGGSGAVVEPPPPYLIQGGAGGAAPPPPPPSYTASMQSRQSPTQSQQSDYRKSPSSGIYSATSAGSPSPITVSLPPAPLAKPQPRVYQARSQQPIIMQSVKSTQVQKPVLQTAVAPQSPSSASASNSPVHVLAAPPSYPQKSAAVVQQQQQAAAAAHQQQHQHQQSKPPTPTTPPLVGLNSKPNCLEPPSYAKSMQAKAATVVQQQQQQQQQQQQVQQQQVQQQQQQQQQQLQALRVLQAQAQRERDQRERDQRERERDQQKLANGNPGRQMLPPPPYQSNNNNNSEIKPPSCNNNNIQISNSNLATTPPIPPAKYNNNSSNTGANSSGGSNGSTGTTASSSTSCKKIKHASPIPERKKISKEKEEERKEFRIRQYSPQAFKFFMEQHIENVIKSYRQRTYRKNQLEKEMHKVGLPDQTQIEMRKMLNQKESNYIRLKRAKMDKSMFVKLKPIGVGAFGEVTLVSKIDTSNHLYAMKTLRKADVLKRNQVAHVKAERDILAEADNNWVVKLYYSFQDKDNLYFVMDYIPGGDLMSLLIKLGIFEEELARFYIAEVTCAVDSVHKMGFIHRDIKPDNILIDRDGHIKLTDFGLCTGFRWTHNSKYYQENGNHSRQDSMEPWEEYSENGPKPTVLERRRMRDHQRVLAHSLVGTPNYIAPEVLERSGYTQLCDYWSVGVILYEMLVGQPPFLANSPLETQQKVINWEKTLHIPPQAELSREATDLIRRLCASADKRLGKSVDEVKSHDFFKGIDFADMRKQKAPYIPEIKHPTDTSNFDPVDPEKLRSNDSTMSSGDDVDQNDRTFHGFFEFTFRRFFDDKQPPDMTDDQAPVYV
From the text: HA-tagged wildtype Yki (Yki, lane 1), a mutant Yki carrying point mutations in the WW domains (Yki^{W292A P295A W361A P364A}, abbreviated as Yki^WM in lane 2), or a truncated Yki containing only the N-terminal half of the protein (Yki^N, lane 3) were co-expressed with V5-tagged Wts. α-HA immunoprecipitates were probed with and α-V5 antibody to detect physical interaction between the Yki variants and Wts. Note that wildtype Yki, but not Yki^WM or Yki^N, could immunoprecipitate Wts.
HA-tagged Yki was constructed by adding a C-terminal HA epitope ([…]) to Yki using the pAc5.1/V5-HisB vector (Invitrogen). N-terminal V5-tagged Wts was constructed in the same vector by adding a V5 tag ([…]) between the first and second codon of Wts. Point mutations of Yki and Wts were introduced using the QuikChange site-directed mutagenesis kit (Stratagene). Myc-tagged Hpo and Flag-tagged Sav constructs have been described previously (Wu et al., 2003). The pGEX4T-1 vector was used to express a fusion of GST with full length Yki the GST-Yki preparation contained two Yki-related bands, with the upper band migrating at the expected molecular weight. It also contained a contaminating band (FIG. 6C). The Yki-related bands, but not the contaminating band, were diminished by thrombin, which cleaves the GST-Yki fusion at the junction of GST and Yki (data not shown). […]

GST-Tsc1 fusion (control substrate) [GST: P08515], sequence (P08515 whole entry, looked up, the tested form may be a part): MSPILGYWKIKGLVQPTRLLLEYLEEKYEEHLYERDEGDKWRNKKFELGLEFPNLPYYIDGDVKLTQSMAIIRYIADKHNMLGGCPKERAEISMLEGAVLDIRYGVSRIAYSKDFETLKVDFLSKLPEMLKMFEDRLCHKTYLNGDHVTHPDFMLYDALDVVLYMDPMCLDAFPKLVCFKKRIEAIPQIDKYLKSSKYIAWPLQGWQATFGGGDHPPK

V5-tagged kinase-dead Wts^K743R
in vitro kinase activity (32P), kinase-dead Wts co-expressed with Hpo-Sav and immunoprecipitated [1]: a kinase dead mutation of Wts, WtsK^743R, completely abolished the in vitro kinase activity of Wts towards Yki

B1: V5-tagged Wts (Warts) (protein)
chain: T3 sequence
in vitro kinase activity (32P), Wts co-expressed with Hpo-Sav and immunoprecipitated [2]: When co-expressed with Hpo-Sav, however, Wts displayed specific kinase activity towards Yki
in vitro kinase activity (32P), Wts co-expressed with Hpo-Sav and immunoprecipitated [3]: Wts displayed specific kinase activity towards Yki (FIG. 6C, lane 2) but not a control substrate (FIG. 6C, lane 4)

B2: HA-tagged Yki^W292A P295A W361A P364A (other)
chain: MCACLIAKIILCSFRLYTISAFYMLTTMSASSNTNSLIEKEIDDEDMLSPIKSNNLVVRVNQDTDDNLQALFDSVLNPGDAKRPLQLPLRMRKLPNSFFTPPAPSHSRANSADSTYDAGSQSSINIGNKASIVQQPDGQSPIAAIPQLQIQPSPQHSRLAIHHSRARSSPASLQQNYNVRARSDAAAANNPNANPSSQQQPAGPTFPENSAQEFPSGAPASSAIDLDAMNTCMSQDIPMSMQTVHKKQRSYDVISPIQLNRQLGALPPGWEQAKTNDGQIYYLNHTTKSTQAEDARIQYRQQQQILMAERIKQNDVLQTTKQTTTSTIANNLGPLPDGWEQAVTESGDLYFINHIDRTTSANDARMQSGLSVLDCPDNLVSSLQIEDNLCSNLFNDAQAIVNPPSSHKPDDLEWYKINYPYDVPDYA
notes: Expressed in S2 cells; also called Yki^WM; mutant Yki carrying point mutations in the WW domains
binding result (V5-tagged Wts (Warts)): no binding
